Experiment [1] deals with cystic fibrosis transmembrane conductance regulator (CFTR) inhibitory factor (Cif) (Pseudomonas aeruginosa). Briefly: cell-based or functional assay.
Experiment [2] concerns the target T1, cystic fibrosis transmembrane conductance regulator (CFTR) inhibitory factor (Cif) (Pseudomonas aeruginosa).
T1 chain: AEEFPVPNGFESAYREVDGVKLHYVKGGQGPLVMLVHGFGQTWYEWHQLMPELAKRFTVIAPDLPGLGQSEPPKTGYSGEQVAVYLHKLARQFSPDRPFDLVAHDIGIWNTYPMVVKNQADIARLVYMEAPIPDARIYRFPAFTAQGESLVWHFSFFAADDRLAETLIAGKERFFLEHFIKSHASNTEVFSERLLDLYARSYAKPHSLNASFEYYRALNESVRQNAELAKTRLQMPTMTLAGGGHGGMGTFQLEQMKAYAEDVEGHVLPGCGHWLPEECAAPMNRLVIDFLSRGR
Description: sandwich ELISA. A general note: ELISA stands for enzyme-linked immunosorbent assay.

What is called IC50 is the midpoint of a concentration-inhibition curve. A lower IC50 goes with inhibition by little substance.

B1: VHH CLONE 103 (VHH)
VHH: EVQLMESAGGLVRPGGSLRLSCVASGSIGDIYSMGWYRQAPGKQRELVATVGAGGLTDYGDSVLGRFTISRDKTKGTVSLEMNSLKPEDTAVYYCNADVSIGPTGLRVYWGQGTQVTVSS
Take B1: the % inhibition of Cif activity, [nab] tested 0.5 mg/mL in experiment [1] was determined as 2%. For the same molecule, the IC50 in experiment [2] was determined as 0.0168 µg/mL.

B2: VHH CLONE 205 (VHH)
VHH: DVQLQASGGGLVQPGGSLRLSCAATGSTDRIAFMGWYRQAPGKLRELVAGITSDGRTNYADDVDVSGRFTISRDSAKNMVYLQMNSLKPEDTAVYYCNADITLAMGGLRVYWGQGTQVTVSS
Consider B2, for which the % inhibition of Cif activity, [nab] tested 0.125 mg/mL in experiment [1] amounted to 0%. Besides, the IC50 in experiment [2] came out at 0.0207 µg/mL.

B3: VHH CLONE 213 (VHH)
VHH: EVQLVESVGGLVQPGGSLRLSCVASGNIGDIYTMGWYRQAPGKQRELVATVGDGGLTNFVDSVKGRFTISRDKSKGTVSLEMNSLKPEDTAVYYCNADVRIGPTGLRVYWGQGTQVTVSS
In experiment [1], B3 returned a % inhibition of Cif activity, [nab] tested 0.55 mg/mL of 0%. Further, the IC50 in experiment [2] is 0.011 µg/mL.

B4: VHH CLONE 220 (VHH)
VHH: EVQLVESGGGLVQPGGSLRLSCVASGNIGNIYTMGWYRQAPGKQRELVAAVGAGELTNYVDSVKGRFTISRDKSKGTVSLEMNSLKPEDTAVYYCNADVSIGPTGLRVYWGQGTQVTVSS
Take B4: in experiment [1], the % inhibition of Cif activity, [nab] tested 0.475 mg/mL is 0%. In addition, in experiment [2], the IC50 was 0.0211 µg/mL.

B5: VHH CLONE 302 (VHH)
VHH: QVKLQESGGGLVQPGGSLRLSCVASGNIGDIYTMGWYRQAPGKQRELVATVGDGGLTNFVDSVKGRFTISRDKSKGTVSLEMNSLKPEDTAVYYCNADVRIGPTGLRVYWGQGTQVTVSS
In turn, B5 had a % inhibition of Cif activity, [nab] tested 0.5 mg/mL in experiment [1] of 0%. This molecule also had an IC50 in experiment [2] of 0.0172 µg/mL.

B6: VHH CLONE 320 (VHH)
VHH: DVQLQASGGGLVQPGGSLRLSCATSTSVFSITTLGWYRQAPGKQRELVASMKRGGDTNYADSVKGRFTISRDNARNTVFLQMNNLTTEDTAVYYCNAAILAYTGAVTNYWGQGTQVTVSS
With B6, in experiment [1], the % inhibition of Cif activity, [nab] tested 0.23 mg/mL turned out to be 9%. Moreover, the IC50 in experiment [2] came to 0.0061 µg/mL.

B7: VHH CLONE 108 (VHH)
VHH: EVQLVESGGGLVQPGGSLRLSCEATGNFDDRGIGWFRQAPGKEREGIACITTRGRTHYAESVEGRFTISTDIANNAVYLQMNSLKPEDTAVYYCAKAIRLTTDRTQCVAFPGVSWGRGTQVTVSS
Molecule B7 registered a % inhibition of Cif activity, [nab] tested 0.275 mg/mL in experiment [1] of 19%. For the same molecule, the IC50 in experiment [2] came out at 0.0098 µg/mL.

B8: VHH CLONE 116 (VHH)
VHH: EVQLVESGGGLVQPGGSLRLSCTASGSILKIYTMDWYRQAPGKQRDLVATVSSRGDTDYTDSVKGRFTISRDDAKNTAYLQMSSLKPEDTAVYYCNFYIQSRTAPFNDYWGQGTQVTVSS
With B8, the % inhibition of Cif activity, [nab] tested 0.275 mg/mL in experiment [1] was found to be 11%. The IC50 in experiment [2] came to 0.0312 µg/mL.

(Values after patent US20200231659A1 (published 2020).)
